{"source": "patent US12485093B2", "about": "“Composition for use as an antiviral in the form of nasal drops and in nebulisers” (DERMOPARTNERS, S.L., priority 2021, dated 2025)", "origin": "cited, not measured here", "key": {"SARS-CoV-2 [1]": {"system": "SARS-CoV-2", "conditions": "adenocarcinoma human alveolar basal epithelial cells (A549), 1 mg/ml"}, "SARS-CoV-2 [2]": {"system": "SARS-CoV-2", "conditions": "African green monkey kidney epithelial cells, 1 mg/ml"}, "[3]": {"system": "viral entry into host cells", "conditions": "by interacting with viral and/or cell surface receptors"}}, "note": "Where two headings read alike, the source gives them in different places.", "data": [{"molecule": "lactoferrin (protein, UniProt P02788 20-710, looked up, naturally occurring, non-toxic glycoprotein, multifunctional protein of the immune system) Lactotransferrin: GRRRSVQWCAVSQPEATKCFQWQRNMRKVRGPPVSCIKRDSPIQCIQAIAENRADAVTLDGGFIYEAGLAPYKLRPVAAEVYGTERQPRTHYYAVAVVKKGGSFQLNELQGLKSCHTGLRRTAGWNVPIGTLRPFLNWTGPPEPIEAAVARFFSASCVPGADKGQFPNLCRLCAGTGENKCAFSSQEPYFSYSGAFKCLRDGAGDVAFIRESTVFEDLSDEAERDEYELLCPDNTRKPVDKFKDCHLARVPSHAVVARSVNGKEDAIWNLLRQAQEKFGKDKSPKFQLFGSPSGQKDLLFKDSAIGFSRVPPRIDSGLYLGSGYFTAIQNLRKSEEEVAARRARVVWCAVGEQELRKCNQWSGLSEGSVTCSSASTTEDCIALVLKGEADAMSLDGGYVYTAGKCGLVPVLAENYKSQQSSDPDPNCVDRPVEGYLAVAVVRRSDTSLTWNSVKGKKSCHTAVDRTAGWNIPMGLLFNQTGSCKFDEYFSQSCAPGSDPRSNLCALCIGDEQGENKCVPNSNERYYGYTGAFRCLAENAGDVAFVKDVTVLQNTDGNNNEAWAKDLKLADFALLCLDGKRKPVTEARSCHLAMAPNHAVVSRMDKVERLKQVLLHQQAKFGRNGSDCPDKFCLFQSETKNLLFNDNTECLARLHGKTTYEKYLGPQYVAGITNLKKCSTSPLLEACEFLRK", "values": [{"measurement": "inhibition of SARS-CoV-2", "setting": "SARS-CoV-2 [1]", "value": "capable of inhibiting SARS-CoV-2"}, {"measurement": "inhibition of SARS-CoV-2", "setting": "SARS-CoV-2 [2]", "value": "capable of inhibiting SARS-CoV-2"}, {"measurement": "effect on efficacy of remdesivir and hydroxychloroquine", "setting": "SARS-CoV-2 infection", "value": "potentiated the efficacy of both remdesivir and hydroxychloroquine"}, {"measurement": "IC50", "setting": "SARS-CoV-2 infection; read-out: IC50 of inhibition of SARS-CoV-2 infection", "value": 308, "unit": "nM"}, {"measurement": "block of viral entry into host cells", "setting": "[3]", "value": "managed to block viral entry into host cells"}]}]}
